The source of these data is US5827710, “DNA encoding the subunit of avian lactate dehydrogenase” (Oriental Yeast Co., Ltd., dated 1998).

This series concerns the molecule itself. The series is described as follows: gel filtration column chromatography (SMART system) of the purified recombinant protein: about 147,000 found, against about 36,000 calculated for each subunit. An excerpt:
3) Determination of the molecular weight of the recombinant chicken LDH-B₄ protein As a result of gel filtration column chromatography analysis of the purified sample by a SMART system (made by Pharmacia), the molecular weight of the purified recombinant chicken LDH-B₄ protein was about 147,000 (FIG. 10). It is presumed that the subunits B of chicken LDH are combined to form a tetramer (theoretical molecular weight of about 140,000) because the molecular weight of each subunit B of chicken LDH is calculated at about 36,000 from its amino acid sequence.

B1: type B subunit of chicken lactate dehydrogenase (recombinant, expressed in Saccharomyces cerevisiae from YRp1G-cLD-B) (enzyme)
chain: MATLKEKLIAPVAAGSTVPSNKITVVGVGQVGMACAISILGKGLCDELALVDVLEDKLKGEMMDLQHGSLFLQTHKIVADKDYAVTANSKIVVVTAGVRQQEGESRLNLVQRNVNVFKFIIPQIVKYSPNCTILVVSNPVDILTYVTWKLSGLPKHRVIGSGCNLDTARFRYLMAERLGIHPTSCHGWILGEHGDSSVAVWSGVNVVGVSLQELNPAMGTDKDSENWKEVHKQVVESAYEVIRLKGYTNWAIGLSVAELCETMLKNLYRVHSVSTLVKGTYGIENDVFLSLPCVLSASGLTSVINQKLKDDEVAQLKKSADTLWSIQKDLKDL
Turning to B1, the binding result is “binds”.
